Laboratory results from publication PMC11446282.

Molecular target: fluorescent peptide probe FITC-PEG2-…-Nle-IKKLEW
Assay: fluorescence polarisation

B55α (His-Strep-TEV fusion protein), sequence (P63151 whole entry, the tested form may be a part): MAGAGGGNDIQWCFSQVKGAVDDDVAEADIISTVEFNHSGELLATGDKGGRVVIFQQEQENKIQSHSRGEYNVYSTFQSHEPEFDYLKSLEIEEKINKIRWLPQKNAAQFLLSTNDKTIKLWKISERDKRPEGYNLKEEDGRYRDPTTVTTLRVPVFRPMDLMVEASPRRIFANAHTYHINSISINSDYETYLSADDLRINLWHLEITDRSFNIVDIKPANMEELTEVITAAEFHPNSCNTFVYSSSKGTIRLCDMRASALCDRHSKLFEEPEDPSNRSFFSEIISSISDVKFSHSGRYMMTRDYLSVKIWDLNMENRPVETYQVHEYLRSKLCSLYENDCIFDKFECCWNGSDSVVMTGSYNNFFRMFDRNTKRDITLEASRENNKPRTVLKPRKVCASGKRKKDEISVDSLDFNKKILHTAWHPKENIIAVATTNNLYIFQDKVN

Work on “B55α (His-Strep-TEV fusion protein) (from UniProt P63151 1-447) (natural protein)” yielded a Kd of 6 nM.
